T1: Oatp1 (Solute carrier organic anion transporter family member 1A1) (Rattus norvegicus, UniProt P46720)
T1 sequence (P46720 whole entry): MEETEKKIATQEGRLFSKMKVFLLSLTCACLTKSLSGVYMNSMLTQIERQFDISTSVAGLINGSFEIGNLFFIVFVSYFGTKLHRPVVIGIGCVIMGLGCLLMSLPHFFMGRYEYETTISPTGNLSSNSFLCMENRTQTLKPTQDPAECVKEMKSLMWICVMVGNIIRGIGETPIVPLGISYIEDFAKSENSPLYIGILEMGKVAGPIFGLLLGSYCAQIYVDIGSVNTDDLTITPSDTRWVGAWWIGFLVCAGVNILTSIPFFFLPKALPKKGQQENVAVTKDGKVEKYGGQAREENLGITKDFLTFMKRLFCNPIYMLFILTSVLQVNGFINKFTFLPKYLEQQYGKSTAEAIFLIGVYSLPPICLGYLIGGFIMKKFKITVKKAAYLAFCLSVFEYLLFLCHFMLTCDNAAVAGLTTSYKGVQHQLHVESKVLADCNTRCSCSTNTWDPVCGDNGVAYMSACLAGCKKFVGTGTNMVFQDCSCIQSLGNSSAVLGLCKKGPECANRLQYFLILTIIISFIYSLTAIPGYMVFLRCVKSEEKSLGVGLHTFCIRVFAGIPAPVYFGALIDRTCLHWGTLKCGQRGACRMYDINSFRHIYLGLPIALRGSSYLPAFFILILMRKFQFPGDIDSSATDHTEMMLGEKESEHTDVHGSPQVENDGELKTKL


How the values were obtained:
Assay type in all cases: functional, cell-based
[1] = biological target: T1, Oatp1 (Solute carrier organic anion transporter family member 1A1); experiment: (§1) TP_TRANSPORTER: uptake in Oatp1-expressing CHO-03 cell; conditions: hamster, CHO-03 cells expressing Oatp1
[2] = substrate: C[C@]12CC[C@@H]3c4ccc(OS(=O)(=O)O)cc4CC[C@H]3[C@@H]1CCC2=O; experiment: as §1
[3] = substrate: COc1cc(C)c(S(=O)(=O)N[C@@H](CC(=O)O)C(=O)N[C@H](Cc2ccc(C(=N)N)cc2)C(=O)N2CCCCC2)c(C)c1C; experiment: as §1
[4] = substrate: O=C1OC(c2ccc(O)c(S(=O)(=O)O)c2)(c2ccc(O)c(S(=O)(=O)O)c2)c2c(Br)c(Br)c(Br)c(Br)c21; experiment: as §1
[5] = substrate: C[C@]12CC[C@@H]3c4ccc(O)cc4CC[C@H]3[C@@H]1CC[C@@H]2O[C@@H]1O[C@H](C(=O)O)[C@@H](O)[C@H](O)[C@H]1O; experiment: as §1
[6] = substrate: C[C@H](CCC(=O)NCCS(=O)(=O)O)[C@H]1CC[C@H]2[C@@H]3[C@H](O)C[C@@H]4C[C@H](O)CC[C@]4(C)[C@H]3CC[C@]12C; experiment: as §1
[7] = substrate: [H][C@@]12CC=C3C[C@@H](OS(=O)(=O)O)CC[C@]3(C)[C@@]1([H])CC[C@]1(C)C(=O)CC[C@@]21[H]; experiment: as §1
[8] = substrate: C[C@H](CCC(=O)NCCS(=O)(=O)O)[C@H]1CC[C@H]2[C@@H]3[C@@H](O)C[C@@H]4C[C@H](O)CC[C@]4(C)[C@H]3CC[C@]12C; experiment: as §1

Molecule	Km [1] [µM]	Km [2] [µM]	Km [3] [µM]	Km [4] [µM]	Km [5] [µM]	Km [6] [µM]	Km [7] [µM]	Km [8] [µM]
C[C@@H]1O[C@@H](O[C@H]2C[C@@H](O)[C@]3(CO)[C@H]4[C@H](O)C[C@]5(C)[C@@H](C6=CC(=O)OC6)CC[C@]5(O)[C@@H]4CC[C@]3(O)C2)[C@H](O)[C@H](O)[C@H]1O [OUABAIN]	3000	–	–	–	–	–	–	–
C[C@@H]1Cc2c(Cl)cc(C(=O)N[C@@H](Cc3ccccc3)C(=O)O)c(O)c2C(=O)O1 [3R14S-OCHRATOXIN A]	29	–	–	–	–	–	–	–
Solute carrier organic anion transporter family member 1A1 (Rattus norvegicus) (protein) MEETEKKIATQEGRLFSKMKVFLLSLTCACLTKSLSGVYMNSMLTQIERQFDISTSVAGLINGSFEIGNLFFIVFVSYFGTKLHRPVVIGIGCVIMGLGCLLMSLPHFFMGRYEYETTISPTGNLSSNSFLCMENRTQTLKPTQDPAECVKEMKSLMWICVMVGNIIRGIGETPIVPLGISYIEDFAKSENSPLYIGILEMGKVAGPIFGLLLGSYCAQIYVDIGSVNTDDLTITPSDTRWVGAWWIGFLVCAGVNILTSIPFFFLPKALPKKGQQENVAVTKDGKVEKYGGQAREENLGITKDFLTFMKRLFCNPIYMLFILTSVLQVNGFINKFTFLPKYLEQQYGKSTAEAIFLIGVYSLPPICLGYLIGGFIMKKFKITVKKAAYLAFCLSVFEYLLFLCHFMLTCDNAAVAGLTTSYKGVQHQLHVESKVLADCNTRCSCSTNTWDPVCGDNGVAYMSACLAGCKKFVGTGTNMVFQDCSCIQSLGNSSAVLGLCKKGPECANRLQYFLILTIIISFIYSLTAIPGYMVFLRCVKSEEKSLGVGLHTFCIRVFAGIPAPVYFGALIDRTCLHWGTLKCGQRGACRMYDINSFRHIYLGLPIALRGSSYLPAFFILILMRKFQFPGDIDSSATDHTEMMLGEKESEHTDVHGSPQVENDGELKTKL	–	11	57	3	4	7	5	13

From ChEMBL document CHEMBL2074313, “Polyspecific substrate uptake by the hepatic organic anion transporter Oatp1 in stably transfected CHO cells” (Am J Physiol, 1999)
